Substitutions are numbered along the chain they refer to. In names and notes the source's numbering stands. Entries after “also recorded” stand apart in the source; their conditions may differ.
B1: S173H: variant of the O-methyltransferase from Myxococcus xanthus (MxSafC_S173H) (protein)
chain: MIHHVELTQSVLQYIRDSSVRDNDILRDLREETSKLPLRTMQIPPEQGQLLSLLVRLIGARKTLEVGVFTGYSTLCAALALPADGRVIACDLSEEWVSIARRYWQRAGVADRIEVRLGDAHHSLEALVGSEHRGTFDLAFIDADKESYDFYYEHALRLVRPGGLIILDNTLWHGKVADPSVVGDPETDSLRRINAKLLTDERVDLSMLPIADGLTLARKR
modifications: MxSafC_S173H
B2: T40P: variant of the O-methyltransferase from Myxococcus xanthus (MxSafC_T40P) (protein)
chain: B1 chain with T40P, H173S
modifications: MxSafC_T40P
B3: T40P/S173H: double mutant variant of the O-methyltransferase from Myxococcus xanthus (MxSafC_T40P_S173H) (protein)
chain: B1 chain with T40P
modifications: MxSafC_T40P_S173H
B4: L92Q: variant of the O-methyltransferase from Myxococcus xanthus (MxSafC_L92Q) (protein)
chain: B1 chain with L92Q, H173S
modifications: MxSafC_L92Q
B5: D119P: variant of the O-methyltransferase from Myxococcus xanthus (MxSafC_D119P) (protein)
chain: B1 chain with D119P, H173S
modifications: MxSafC_D119P
B6: M5: quintuple mutant of MxSafC combining mutation T40P/L92Q/W96A/D119P/S173H (protein)
chain: B1 chain with T40P, L92Q, W96A, D119P
modifications: MxSafC_M5
notes: quintuple mutant of MxSafC combining mutation T40P/L92Q/W96A/D119P/S173H
B7: W96A: variant of the O-methyltransferase from Myxococcus xanthus (MxSafC_W96A) (protein)
chain: B1 chain with W96A, H173S
modifications: MxSafC_W96A

assay: Biotransformation of 3-hydroxyphloretin with lysed E. coli BL21(DE3) cells expressing MxSafC wild-type or variants (LC-MS); assay type: biochemical; conditions: 3 mM 3-hydroxyphloretin, 3 mM S-adenosylmethionine, 25° C., 24 hours; FIG. 10 light grey bars
Description: FIG. 10: Biotransformation of 3-Hydroxyphloretin with lysed E. coli BL21 (DE 3) cells, which express MxSafC (wild-type (wt), cf. SEQ ID NOs: 13, 14, 55), or specific variants or mutants thereof (cf. SEQ ID NOs: 56 to 76). Hesperetin dihydrochalcone as well as homoeriodictyol (HED) dihydrochalcone are the products. Conversion of 3-hyroxyphloretin (30HP) shown in light grey, product specificity towards hesperetin dihydrochalcone is shown in dark grey.
MxSafC mutant variants correspond to SEQ ID NOs: 56 to SEQ ID NO: 76. These were synthesized (BioCat GmbH, Heidelberg, Germany) and cloned into pET28a between NcoI and HindIII restriction sites, respectively. SEQ ID NOs: 13, 14 and 55 show the respective wild-type sequence. By artificial design, certain mutants were created to optimize the activity and/or specificity of the MxSafC enzyme. Interesting single, double and quintuple mutants could be identified, as shown in detail in the results in FIG. 10.
First, various positions within MxSafC (SEQ ID NO: 14) were randomly mutated. All mutants were characterized and checked for activity. In a second round, targeted mutations and combinations thereof were tested in an iterative manner to identify suitable mutants for commercial purposes that have a good activity and conversion rate, but at the same time a good or even improved product specificity. Indeed, certain variants could be identified that fulfill these needs.
30 E. coli BL21(DE3) cells, each containing a plasmid from Table 1, were used to inoculate 5 ml of LB medium (Carl Roth GmbH, Karlsruhe, Germany) with the corresponding antibiotic. After incubation for 16 h (37° C., 200 rpm), 20 ml TB medium (Carl Roth GmbH, Karlsruhe, Germany) were inoculated with an OD600 of 0.1 from these cultures. These main cultures were incubated (37° C., 200 rpm) until an OD600 of 0.5-0.8 was achieved. After addition of 1 mM isopropyl-β-D-thiogalactopyranoside, the cultures were incubated for a further 16 h (22° C., 200 rpm). The main culture was centrifuged (10 min, 10,000 rpm), the pelleted cells were decomposed using the B-PER protein extraction reagent (Thermo Fisher Scientific, Bonn, Germany) according to the manufacturers specifications. After additional centrifugation (10 min, 14,000 rpm) the supernatant was mixed with 3 mM 3-hydroxyphloretin, 3 mM S-adenosylmethionine, 0.1 mM MgCl2. The reaction mixture was incubated at 25° C. for 24 hours. After stopping the assay with 20% trichloroacetic acid ([…] final concentration) the sample was centrifuged and the supernatant used for LC-MS analysis.

Molecule	enzyme activity (conversion of 3-hydroxyphloretin)
B1	particularly favorable
B2	particularly favorable
B3	a technically reasonable activity

same assay, conditions: 3 mM 3-hydroxyphloretin, 3 mM S-adenosylmethionine, 25° C., 24 hours; compared with wild-type MxSafC; FIG. 10 dark grey

Molecule	product specificity towards hesperetin dihydrochalcone
B4	nearly balanced
B1	performed better than the wild-type
B5	nearly balanced
B2	performed better than the wild-type
B3	performed better than the wild-type; also recorded: a good specificity
B6	performed better than the wild-type
B7	performed better than the wild-type

From patent US20230279451A1, “METHODS FOR THE BIOCATALYTICAL MANUFACTURING OF DIHYDROCHALCONES” (SYMRISE AG, priority 2019, published 2023)
